Assay results reported in patent CN111378038A (UNIV FUDAN, dated 2020).

B1: P2-G12 IgG1 (antibody, V domains shown)
VH: EVQLVQSGGGLVQPGGSLRLSCAASGFTFSSYSMNWVRQAPGKGLEWVSAISGSGGSTYYADSVKGRFTISRDNSKNTLYLQMNSLRAEDTAVYYCARDPYGSGSYYRGDAFDIWGQGTMVTVSS
VL: ELTQPPSVSVAPGKTARITCGGNNIGSKSVHWYQQKPGQAPVLAIYYDSDRPSGIPERFSGSNSGNTATLTISRVEVGDEADYYCQVWDSVSDVVFGGGTKLTVL
notes: also called 单克隆抗体P2-G12
B2: P2-G12 Fab (Fab, V domains shown)
VH: B1 VH
VL: B1 VL
notes: Fully human Fab from a phage display library, expressed in E. coli HB2151 and purified on Ni-NTA; P2-G12 is the only antibody described; also called PD-1抗体 (Fab形式)

Tests used:
[1] = target: T1, 人全长PD-1蛋白 (过表达于HEK293T细胞) (human, UniProt Q15116 25-288); experiment: flow cytometry on HEK293T cells overexpressing human full-length PD-1, anti-human IgG1-FITC detection
T1 construct: whole, on cells; also called 过表达PD-1的HEK293T细胞
T1 sequence (Q15116 25-288): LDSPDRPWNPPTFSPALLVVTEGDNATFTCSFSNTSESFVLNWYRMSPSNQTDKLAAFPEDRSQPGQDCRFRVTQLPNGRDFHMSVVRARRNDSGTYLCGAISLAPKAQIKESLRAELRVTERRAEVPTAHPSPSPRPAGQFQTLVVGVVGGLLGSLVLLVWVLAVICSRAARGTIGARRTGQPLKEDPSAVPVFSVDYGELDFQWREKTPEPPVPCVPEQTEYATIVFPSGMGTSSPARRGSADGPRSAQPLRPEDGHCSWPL

PD-1(ECD)-hFc融合蛋白 [2] = target: T2, PD-1(ECD)-hFc融合蛋白 (human, UniProt Q15116 25-170); experiment: ELISA, PD-1(ECD)-hFc coated, serially diluted antibody, HRP-anti-Fab detection; reference: P2-G12 Fab
T2 construct: extracellular domain; It was biotin-labelled for the panning and coated on the plate in the ELISA; also called PD-1(ECD)-hFc蛋白; PD-1蛋白; not shown: hFc (human Fc)
T2 sequence (Q15116 25-170): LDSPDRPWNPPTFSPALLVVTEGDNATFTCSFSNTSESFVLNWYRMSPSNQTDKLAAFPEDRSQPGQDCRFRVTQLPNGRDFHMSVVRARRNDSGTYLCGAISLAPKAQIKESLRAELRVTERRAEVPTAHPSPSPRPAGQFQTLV

PD-1(ECD)-hFc融合蛋白 [3] = target: T2, PD-1(ECD)-hFc融合蛋白; experiment: ELISA, PD-1(ECD)-hFc coated, serially diluted antibody, HRP-anti-Fab detection

Binder	binding result [1]	fold increase of binding ability against the Fab form (PD-1(ECD)-hFc融合蛋白 [2]) [fold]	binding result (PD-1(ECD)-hFc融合蛋白 [3])
B1	binds	100	–
B2	–	–	binds
